Results reported in publication PMC7602980 (Biomolecules, 2020).

B1: Cx43CL_(136-158) M147T peptide (peptide)
peptide: KYGIEEHGKVKTRGGLLRTYIIS
notes: connexin43 (Cx43) cytoplasmic loop, residues K136-S158, with the ODDD mutation M147T; ODDD-linked mutation that occurs in patients; No species is named for the synthetic peptides; source: synthetic peptide (LifeTein, 95% purity)
B2: Cx43CL_(136-158) R148Q peptide (peptide)
peptide: KYGIEEHGKVKMQGGLLRTYIIS
notes: connexin43 (Cx43) cytoplasmic loop, residues K136-S158, with the ODDD mutation R148Q; ODDD-linked mutation that occurs in patients; No species is named for the synthetic peptides; source: synthetic peptide (LifeTein, 95% purity)
B3: Cx43CL_(136-158) T154A peptide (peptide)
peptide: KYGIEEHGKVKMRGGLLRAYIIS
notes: connexin43 (Cx43) cytoplasmic loop, residues K136-S158, with the ODDD mutation T154A; ODDD-linked mutation that occurs in patients; No species is named for the synthetic peptides; source: synthetic peptide (LifeTein, 95% purity)

These binders were tested against T1, calmodulin (UniProt P0DP23 1-149) (assay: NMR titration; 15N-HSQC; 15N-labeled CaM at a constant concentration (30–100 μM), unlabeled ligand added (7.5 to 400 μM); KD by nonlinear fitting of chemical shift changes, average of at least six curves). Details: both partners purified.
T1 construct: calmodulin (CaM); Used 15N-labeled or unlabeled; also called CaM; source: expressed (cloned in pAED4 vector)

Binding result, binds:
B1, B2, B3
